Results on one molecule are retold here after CN103044552A (INST PATHOGEN BIOLOGY CAMS, dated 2013).

Test [1] addresses T1, DEC-205分子 (human, on monocyte-derived human dendritic cells) (human, UniProt O60449 28-1722).
T1 construct: whole, on cells; The assay itself used whole human DC
The test can be described thus: flow cytometry on human monocyte-derived DC, FITC secondary antibody.

The target in test [2] is DEC-205 (antigen of the SPR measurement, form not stated) (UniProt O60449). In words: SPR (CM5 chip coupled with anti-human secondary antibody; gradient 1000-62.5 nM).

T1 sequence (O60449 28-1722): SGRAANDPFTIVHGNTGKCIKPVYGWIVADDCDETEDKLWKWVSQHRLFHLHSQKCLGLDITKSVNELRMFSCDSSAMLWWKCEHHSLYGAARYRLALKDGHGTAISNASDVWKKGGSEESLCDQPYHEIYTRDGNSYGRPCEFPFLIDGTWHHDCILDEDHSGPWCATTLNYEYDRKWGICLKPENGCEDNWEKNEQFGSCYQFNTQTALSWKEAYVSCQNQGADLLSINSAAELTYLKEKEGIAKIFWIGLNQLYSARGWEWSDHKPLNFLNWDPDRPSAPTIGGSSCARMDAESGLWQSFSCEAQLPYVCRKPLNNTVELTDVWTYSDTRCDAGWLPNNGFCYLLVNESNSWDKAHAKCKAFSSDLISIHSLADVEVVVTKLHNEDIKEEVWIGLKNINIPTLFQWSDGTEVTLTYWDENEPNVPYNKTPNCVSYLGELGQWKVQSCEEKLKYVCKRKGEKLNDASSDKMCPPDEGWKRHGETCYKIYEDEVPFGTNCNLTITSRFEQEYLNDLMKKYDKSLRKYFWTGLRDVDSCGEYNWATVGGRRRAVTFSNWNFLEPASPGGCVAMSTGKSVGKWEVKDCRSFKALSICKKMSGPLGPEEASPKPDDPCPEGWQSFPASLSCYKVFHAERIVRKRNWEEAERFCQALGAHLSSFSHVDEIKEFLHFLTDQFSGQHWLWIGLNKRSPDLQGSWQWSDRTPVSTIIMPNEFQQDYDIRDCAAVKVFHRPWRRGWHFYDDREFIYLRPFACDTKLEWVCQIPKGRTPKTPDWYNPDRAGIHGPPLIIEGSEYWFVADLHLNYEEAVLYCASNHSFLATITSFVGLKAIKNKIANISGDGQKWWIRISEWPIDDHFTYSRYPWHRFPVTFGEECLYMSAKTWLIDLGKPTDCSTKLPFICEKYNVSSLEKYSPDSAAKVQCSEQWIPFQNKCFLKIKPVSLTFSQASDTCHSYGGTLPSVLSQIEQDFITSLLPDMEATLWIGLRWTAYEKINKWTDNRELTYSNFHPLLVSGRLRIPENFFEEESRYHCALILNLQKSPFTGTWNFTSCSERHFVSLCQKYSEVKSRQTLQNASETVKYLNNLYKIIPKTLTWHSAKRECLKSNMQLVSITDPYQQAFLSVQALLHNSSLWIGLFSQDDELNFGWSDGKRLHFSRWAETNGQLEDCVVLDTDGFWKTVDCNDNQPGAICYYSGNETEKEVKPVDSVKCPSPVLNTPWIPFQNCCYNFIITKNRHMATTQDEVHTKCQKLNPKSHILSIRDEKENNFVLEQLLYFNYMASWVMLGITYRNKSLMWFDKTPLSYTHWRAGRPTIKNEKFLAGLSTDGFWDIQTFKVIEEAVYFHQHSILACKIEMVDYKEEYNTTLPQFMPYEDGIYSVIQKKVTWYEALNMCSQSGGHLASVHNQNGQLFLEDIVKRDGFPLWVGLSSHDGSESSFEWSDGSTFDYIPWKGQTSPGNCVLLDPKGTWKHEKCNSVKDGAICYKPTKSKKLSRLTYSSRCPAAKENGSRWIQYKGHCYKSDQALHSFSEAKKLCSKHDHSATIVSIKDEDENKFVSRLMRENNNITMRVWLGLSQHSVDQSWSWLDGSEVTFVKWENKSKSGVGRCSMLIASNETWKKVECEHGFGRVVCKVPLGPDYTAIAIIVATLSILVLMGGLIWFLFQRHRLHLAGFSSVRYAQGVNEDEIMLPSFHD

B1: 人源化的抗树突状细胞表面DEC-205分子的单克隆抗体 (antibody, V domains shown)
VH: EVQLVESGGGLVQPGRSLRLSCAASGFTFSHYYMAWVRQAPGKGLEWVAYISTDGGTTYYRDSVKGRFTISRDNAKSTLYLQMNSLRAEDTAVYYCTTGQPGYNLDYFDYWGQGTLVTVSS
VL: DIQMTQSPSSLSASVGDRVTITCQASQDIGYWLAWYQLKPGKSPQLLIYGATSLADGVPSRFSGSGSGTDYTLTISSLQPEDIATYYCQQASSVPWTFGGGTKLEIK
notes: FITC-labelled in the internalisation assay
For B1, the binding result in test [1] is listed as “binds”. Also, in test [2], the Kd – broadly, a measure of binding affinity in units of concentration – stood at 16.7 nM; the koff (as a rule, the rate constant with which the complex falls apart) turned out to be 0.000137 s⁻¹; the on-rate constant (kon) (commonly a measure of how fast the partners come together) worked out at 8220 M⁻¹ s⁻¹.
